# Assay results published in publication PMC6230950.
# How the values were obtained:
# [1] = target: commercial purified human IgG1 (human); assay: SPR; Biacore X100, HBS-EP+; TB-PIGS captured on protein A coupled to a CM5 chip; FcγR as analyte, 40 μL/min; affinity of one FcγR for a single arm
# [2] = target: commercial purified human IgG1 (human); assay: SPR; Biacore X100; protein A on a CM5 chip, IgG or TB-PIGS captured; human CD32a as analyte, 4000 nM to 125 nM in 2-fold dilutions; HBS-EP+; 40 uL/min, contact 90 s; steady-state affinity analysis
# [3] = target: commercial purified murine IgG2a (mouse); assay: SPR; Biacore X100; protein A amine-coupled on a CM5 chip, IgG or TB-PIGS captured on it; CD64 (human or mouse) as analyte, 240 nM down to 1.875 nM in 1:2 dilutions; HBS-EP+; 40 uL/min, contact 135 s, dissociation 600 s; 1:1 model, but for human TB-PIGS from wild-type plants the 'Heterogeneous antibody with aglycosylation' model (two sets of values)
molecule,measurement,setting,value
human CD16a (FcγRIIIa) (from UniProt P08637 17-208) (receptor),Kd,[1],673 nM
human CD32a (FcγRIIa) (from UniProt P12318 34-217) (receptor),Kd,[2],880 nM
human CD64 (FcγRI) (from UniProt P12314 16-292) (receptor),Kd,[1],0.27 nM
mouse CD64 (FcγRI) (receptor) EVVNATKAVITLQPPWVSIFQKENVTLWCEGPHLPGDSSTQWFINGTAVQISTPSYSIPEASFQDSGEYRCQIGSSMPSDPVQLQIHNDWLLLQASRRVLTEGEPLALRCHGWKNKLVYNVVFYRNGKSFQFSSDSEVAILKTNLSHSGIYHCSGTGRHRYTSAGVSITVKELFTTPVLRASVSSPFPEGSLVTLNCETNLLLQRPGLQLHFSFYVGSKILEYRNTSSEYHIARAEREDAGFYWCEVATEDSSVLKRSPELELQVLGPQSSAP,Kd,[3],4.8 nM
same,koff,[3],0.0105 s⁻¹
same,kon,[3],2.18e+06 M⁻¹ s⁻¹
